These results are taken from paper PMC2504300.

Common to all, as to assay: filter binding
Series [1] concerns the target T1, Grp (glutamine receptor protein) (Sulfolobus tokodaii strain 7, UniProt F9VNT4 1-150).
T1 sequence: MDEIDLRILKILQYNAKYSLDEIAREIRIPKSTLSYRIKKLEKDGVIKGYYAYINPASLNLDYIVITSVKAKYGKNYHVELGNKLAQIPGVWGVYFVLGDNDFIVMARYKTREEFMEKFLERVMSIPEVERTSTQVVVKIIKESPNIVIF

The next series deals with T2, Grp Y77A (Sulfolobus tokodaii strain 7, UniProt F9VNT4 1-150, Y77A).
T2 sequence: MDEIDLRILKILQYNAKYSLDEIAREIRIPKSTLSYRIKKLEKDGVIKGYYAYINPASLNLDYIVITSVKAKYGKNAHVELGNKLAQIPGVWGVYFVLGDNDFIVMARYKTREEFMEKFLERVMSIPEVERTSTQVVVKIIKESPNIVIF

Series [2] concerns the target T1, Grp (glutamine receptor protein). The source holds these as a separate data set.
The target of a further series is T3, Grp S32A (Sulfolobus tokodaii strain 7, UniProt F9VNT4 1-150, S32A).
T3 sequence: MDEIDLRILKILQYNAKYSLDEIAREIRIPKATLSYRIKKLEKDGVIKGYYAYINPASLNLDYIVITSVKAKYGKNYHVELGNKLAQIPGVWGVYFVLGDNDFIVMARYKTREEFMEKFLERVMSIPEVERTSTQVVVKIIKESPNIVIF

B1: 111-bp grp promoter (dsDNA)
DNA 1: CGTATCTTCCAAAGATTATAAGCGATTTTTTGTAAGTCTTTTTTTATTATAAGTGTTGATTAGATATAATTCAAAGTAAAGGCTTATATTTTTGTTTATAATATACAGTCT
DNA 2: AGACTGTATATTATAAACAAAAATATAAGCCTTTACTTTGAATTATATCTAATCAACACTTATAATAAAAAAAGACTTACAAAAAATCGCTTATAATCTTTGGAAGATACG
For B1, in series [1], the binding result was “binds”.

B2: 18-bp grp promoter fragment (dsDNA)
DNA 1: ATATTTTTGTTTATAATA
DNA 2: TATTATAAACAAAAATAT
Take B2: the binding result in the series with Grp Y77A is listed as “no binding”. Moreover, the dissociation constant (Kd) in series [2] turned out to be 188 ± 1 nM. For the same molecule, the binding signal with Grp S32A is ~5 fold lower binding than wild type.
